Residue numbers refer to the chain shown, from its start. Names and notes keep the numbering of the source.
T1: PUF4 RNA-binding domain (Saccharomyces cerevisiae, UniProt P25339 537-888)
T1 sequence: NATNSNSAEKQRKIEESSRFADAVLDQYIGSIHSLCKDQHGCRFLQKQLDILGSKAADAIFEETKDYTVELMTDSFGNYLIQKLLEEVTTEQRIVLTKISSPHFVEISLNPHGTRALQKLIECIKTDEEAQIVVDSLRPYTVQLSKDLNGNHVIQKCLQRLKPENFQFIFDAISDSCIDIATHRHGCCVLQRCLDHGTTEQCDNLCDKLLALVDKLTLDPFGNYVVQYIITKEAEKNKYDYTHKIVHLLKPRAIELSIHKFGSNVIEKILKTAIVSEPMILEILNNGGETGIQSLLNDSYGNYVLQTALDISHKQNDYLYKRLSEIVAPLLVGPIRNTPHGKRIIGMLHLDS

B1: Ib_S2_P4E.1_K4.1_C4.1_H4.1_[T3C]_A4.1_[A6C]_F4.1_T4.1 (ssRNA)
RNA: UUUGAUUAAUAUGAUAUCGUUCUUUCUUGCAUCUUAUUCUUUCUCGAUAUCAUAUUAAUCUUU
B2: Ib_S2_P4E.1_K4.1_C4.1_H4.1_[A4T]_A4.1_[A6G]_F4.1_T4.1 (ssRNA)
RNA: B1 RNA with C30U, A31U, C33G
B3: Ic_S2_P4E.1_K4.1_C4.1_H4.1_A4.1_[T5A]_[A6T]_F4.1_T4.1 (ssRNA)
RNA: B1 RNA with C30U, U32A, C33U
B4: Ib_S2_P4E.1_K4.1_C4.1_H4.1_[A4C]_A4.1_[T7C]_F4.1_T4.1 (ssRNA)
RNA: B1 RNA with C30U, A31C, C33A, U34C
B5: Ib_S2_P4E.1_K4.1_C4.1_H4.1_A4.1_[T5G]_[A6T]_F4.1_T4.1 (ssRNA)
RNA: B1 RNA with C30U, U32G, C33U
B6: Ib_S2_P4E.1_K4.1_C4.1_H4.1_[A4G]_A4.1_[T7A]_F4.1_T4.1 (ssRNA)
RNA: B1 RNA with C30U, A31G, C33A, U34A
B7: Ib_S2_P4E.1_K4.1_C4.1_H4.1_[A4T]_A4.1_[T7C]_F4.1_T4.1 (ssRNA)
RNA: B1 RNA with C30U, A31U, C33A, U34C
B8: Ib_S2_P4E.1_K4.1_C4.1_H4.1_[A4C]_A4.1_[T7A]_F4.1_T4.1 (ssRNA)
RNA: B1 RNA with C30U, A31C, C33A, U34A
B9: Ib_S2_P4E.1_K4.1_C4.1_H4.1_[A4T]_A4.1_[T7G]_F4.1_T4.1 (ssRNA)
RNA: B1 RNA with C30U, A31U, C33A, U34G
B10: Ib_S2_P4E.1_K4.1_C4.1_H4.1_[A4G]_A4.1_[T7G]_F4.1_T4.1 (ssRNA)
RNA: B1 RNA with C30U, A31G, C33A, U34G
B11: Ib_S2_P4E.1_K4.1_C4.1_H4.1_[T3C]_A4.1_[T7G]_F4.1_T4.1 (ssRNA)
RNA: B1 RNA with C33A, U34G
B12: Ib_S2_P4E.1_K4.1_C4.1_H4.1_A4.1_[T5C]_[A6C]_F4.1_T4.1 (ssRNA)
RNA: B1 RNA with C30U, U32C
B13: Ib_S2_P4E.1_K4.1_C4.1_H4.1_[A4T]_A4.1_[A6C]_F4.1_T4.1 (ssRNA)
RNA: B1 RNA with C30U, A31U
B14: Ib_S2_P4E.1_K4.1_C4.1_H4.1_A4.1_[T5C]_[T7G]_F4.1_T4.1 (ssRNA)
RNA: B1 RNA with C30U, U32C, C33A, U34G
B15: Ib_S2_P4E.1_K4.1_C4.1_H4.1_[A4C]_A4.1_[T7G]_F4.1_T4.1 (ssRNA)
RNA: B1 RNA with C30U, A31C, C33A, U34G
B16: Ib_S2_P4E.1_K4.1_C4.1_H4.1_[A4G]_A4.1_[A6C]_F4.1_T4.1 (ssRNA)
RNA: B1 RNA with C30U, A31G
B17: Ia_S2_P4E.1_K4.1_C4.1_H4.1_[A4T]_A4.1_F4.1_T4.1 (ssRNA)
RNA: B1 RNA with C30U, A31U, C33A
B18: Ib_S2_P4E.1_K4.1_C4.1_H4.1_A4.1_[T5A]_[A6C]_F4.1_T4.1 (ssRNA)
RNA: B1 RNA with C30U, U32A
B19: Ia_S2_P4E.1_K4.1_C4.1_H4.1_A4.1_[A6G]_F4.1_T4.1 (ssRNA)
RNA: B1 RNA with C30U, C33G
B20: Ib_S2_P4E.1_K4.1_C4.1_H4.1_A4.1_[T5C]_[A6T]_F4.1_T4.1 (ssRNA)
RNA: B1 RNA with C30U, U32C, C33U
B21: Ib_S2_P4E.1_K4.1_C4.1_H4.1_[A4G]_A4.1_[A6T]_F4.1_T4.1 (ssRNA)
RNA: B1 RNA with C30U, A31G, C33U
B22: Ib_S2_P4E.1_K4.1_C4.1_H4.1_[A4C]_A4.1_[A6T]_F4.1_T4.1 (ssRNA)
RNA: B1 RNA with C30U, A31C, C33U
B23: Ib_S2_P4E.1_K4.1_C4.1_H4.1_[A4G]_A4.1_[T7C]_F4.1_T4.1 (ssRNA)
RNA: B1 RNA with C30U, A31G, C33A, U34C
B24: Ic_S2_P4E.1_K4.1_C4.1_H4.1_A4.1_[T5A]_F4.1_T4.1 (ssRNA)
RNA: B1 RNA with C30U, U32A, C33A

Biological target: T1, PUF4 RNA-binding domain
Assay: Mg; RNA-MaP; 20 mM Na-HEPES pH 7.4, 30 mM KOAc, 0.75 mM MgCl2, 0.1% Tween-20, 5% glycerol, 0.1 mg/mL BSA, 2 mM DTT; 25 C; 0.0125-409.6 nM protein
Conditions: tags: N-His6-TEV cleaved; C-SNAP kept, Cy3B-labelled; label: tethered on chip by stalled RNA polymerase

| Binder | Kd |
| --- | --- |
| UCUCUUAGUAUAUAUCUCUU (ssRNA) [Ia_S1_P3E.1_K3.1_C3.1_H3.1_[T1A]_A3.1_F3.1_T3.1] | 742 nM |
| B1 | 1010 nM |
| B2 | 55.4 nM |
| B3 | 2.07 nM |
| B4 | 6.04 nM |
| B5 | 2.75 nM |
| B6 | 5.79 nM |
| B7 | 6.89 nM |
| B8 | 16 nM |
| B9 | 30.8 nM |
| B10 | 5.12 nM |
| B11 | 616 nM |
| B12 | 0.902 nM |
| B13 | 23.1 nM |
| B14 | 0.884 nM |
| B15 | 50.2 nM |
| B16 | 8.2 nM |
| B17 | 4.39 nM |
| B18 | 2.62 nM |
| B19 | 2.55 nM |
| B20 | 0.795 nM |
| B21 | 4.38 nM |
| B22 | 28.6 nM |
| B23 | 1.04 nM |
| B24 | 0.874 nM |

Reference: publication PMC9352680, “A comprehensive thermodynamic model for RNA binding by the Saccharomyces cerevisiae Pumilio protein PUF4”
